The values below come from patent US7538195.

For orientation: Kd means the equilibrium constant for the complex coming apart. The low end stands for a tighter complex, the high end for a looser complex.

This assay concerns the target biotinylated full-length human IGF-I receptor (human) (UniProt P08069). Put plainly: ELISA titration, similar to that of the whole antibody.

Sequence of Fab fragment of EM164 antibody (VH): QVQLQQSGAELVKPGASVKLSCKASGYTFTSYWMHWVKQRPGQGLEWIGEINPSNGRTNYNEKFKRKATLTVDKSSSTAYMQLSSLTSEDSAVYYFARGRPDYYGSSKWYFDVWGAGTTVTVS
Sequence of Fab fragment of EM164 antibody (VL): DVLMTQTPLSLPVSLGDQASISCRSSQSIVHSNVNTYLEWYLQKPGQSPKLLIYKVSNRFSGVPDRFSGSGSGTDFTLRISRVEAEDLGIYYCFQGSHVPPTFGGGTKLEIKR

In turn, Fab fragment of EM164 antibody registered a Kd of 0.3 nM.
